Experimental data: the supplement of paper PMC9876800

Tested on: peptide library, one residue held at a place counted from the S/T acceptor
Test: relative phosphorylation of the sub-library (ratio to the mean residue at this position); higher = residue favoured
Conditions: human
Summary of the method: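 Relative sub-library phosphorylation is the ratio of each sub-library's signal to the mean residue at that position. The signal came from phosphorimaging of spots on streptavidin membranes, quantified by densitometry, after purified recombinant kinases reacted with biotinylated degenerate peptide sub-libraries in 384-well plates. Reactions held 50 μM peptide and 50 μM ATP spiked with γ-32P-ATP for 90 min under kinase-specific conditions.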

STK11, construct: Full length, sequence (Q15831 whole entry, looked up): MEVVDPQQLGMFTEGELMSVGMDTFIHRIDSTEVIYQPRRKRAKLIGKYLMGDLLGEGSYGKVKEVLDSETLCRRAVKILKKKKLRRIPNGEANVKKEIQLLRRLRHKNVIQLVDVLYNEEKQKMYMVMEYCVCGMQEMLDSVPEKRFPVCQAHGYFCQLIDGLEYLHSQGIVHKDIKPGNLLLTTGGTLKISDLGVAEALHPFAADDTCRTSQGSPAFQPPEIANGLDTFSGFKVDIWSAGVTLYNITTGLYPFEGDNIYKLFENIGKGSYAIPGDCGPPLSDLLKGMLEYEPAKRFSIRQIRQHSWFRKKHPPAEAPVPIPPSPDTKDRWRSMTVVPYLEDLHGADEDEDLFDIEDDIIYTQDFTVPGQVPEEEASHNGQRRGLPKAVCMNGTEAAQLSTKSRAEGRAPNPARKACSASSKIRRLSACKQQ
CAMK1D, construct: Full length, sequence (Q8IU85 whole entry, looked up): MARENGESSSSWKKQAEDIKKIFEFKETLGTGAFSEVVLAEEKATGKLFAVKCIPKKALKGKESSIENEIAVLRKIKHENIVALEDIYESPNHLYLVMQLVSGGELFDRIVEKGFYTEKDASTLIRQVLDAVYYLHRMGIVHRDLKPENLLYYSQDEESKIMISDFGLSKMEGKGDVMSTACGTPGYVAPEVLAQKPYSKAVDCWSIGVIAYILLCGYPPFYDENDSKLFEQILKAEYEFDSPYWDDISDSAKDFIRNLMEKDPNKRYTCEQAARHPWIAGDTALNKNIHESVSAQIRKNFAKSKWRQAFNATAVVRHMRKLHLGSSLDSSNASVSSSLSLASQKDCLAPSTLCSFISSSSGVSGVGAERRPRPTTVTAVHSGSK
PAK5, construct: aa425-end, sequence (Q9P286 425-719, looked up): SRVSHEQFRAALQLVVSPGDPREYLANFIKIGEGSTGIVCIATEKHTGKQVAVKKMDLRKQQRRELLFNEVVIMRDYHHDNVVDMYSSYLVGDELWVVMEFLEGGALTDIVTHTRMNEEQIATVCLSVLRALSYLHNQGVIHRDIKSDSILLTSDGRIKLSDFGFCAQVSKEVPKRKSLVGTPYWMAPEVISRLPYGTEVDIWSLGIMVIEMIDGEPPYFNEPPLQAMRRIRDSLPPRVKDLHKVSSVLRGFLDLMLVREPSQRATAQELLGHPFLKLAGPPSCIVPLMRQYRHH
CSNK1A1, construct: Full length, sequence (P48729 whole entry, looked up): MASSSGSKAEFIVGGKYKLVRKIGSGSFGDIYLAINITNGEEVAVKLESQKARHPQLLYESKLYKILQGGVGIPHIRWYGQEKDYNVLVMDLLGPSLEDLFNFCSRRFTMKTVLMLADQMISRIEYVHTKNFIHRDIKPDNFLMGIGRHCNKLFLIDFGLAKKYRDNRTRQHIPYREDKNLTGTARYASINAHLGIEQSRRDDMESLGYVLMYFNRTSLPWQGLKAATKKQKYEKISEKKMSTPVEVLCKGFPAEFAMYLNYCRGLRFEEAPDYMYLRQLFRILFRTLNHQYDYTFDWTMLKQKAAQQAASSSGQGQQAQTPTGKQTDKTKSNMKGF

CAMK1D, construct: Full length (from UniProt Q8IU85)
relative phosphorylation
Conditions	at +1	at +2	at +3	at +4	at -1	at -2	at -3	at -4	at -5
A fixed	0.771	0.831	0.729	0.681	0.791	0.914	0.52	0.782	0.533
D fixed	0.658	1.06	1.35	0.996	0.975	0.373	0.154	0.438	0.269
E fixed	0.811	1.22	1.15	0.974	0.646	0.504	0.22	0.784	0.252
F fixed	1.75	1.14	1.17	1.39	0.597	0.446	0.631	0.724	1.38
G fixed	0.761	0.625	0.956	0.822	0.793	0.772	0.287	0.698	0.564
H fixed	1.03	1.47	1.34	0.936	1.35	0.962	0.964	0.955	0.787
I fixed	0.665	0.881	0.722	1.35	0.475	0.37	0.132	0.815	1.31
K fixed	1.26	0.591	0.717	0.675	1.9	1.95	2.7	2.58	0.999
L fixed	0.744	1.06	0.892	1.39	0.759	0.526	0.164	0.886	2.33
M fixed	1.01	0.846	0.854	1.51	0.824	1.09	0.238	0.995	1.35
N fixed	1.29	1.3	1.44	1.01	1.85	0.965	0.414	0.923	0.594
P fixed	0.237	0.753	0.786	1.12	1.41	0.311	0.389	0.63	1.19
Q fixed	1.68	1.14	1.07	0.969	1.28	2.08	0.63	1.06	0.905
R fixed	1.62	0.7	0.785	0.616	1.5	3.51	8.75	2.35	1.85
V fixed	0.747	0.736	0.627	0.746	0.523	0.448	0.153	0.883	0.752
W fixed	0.971	1.3	1.34	0.973	0.486	1.13	0.395	0.706	0.977
Y fixed	0.988	1.35	1.07	0.833	0.834	0.656	0.263	0.789	0.961
pThr fixed	0.967	0.874	0.756	1.2	0.312	0.312	0.221	0.486	0.375
pTyr fixed	0.844	2.75	1.25	0.949	0.739	0.291	0.205	0.431	0.739

PAK5, construct: aa425-end (from UniProt Q9P286)
relative phosphorylation
Conditions	at +1	at +2	at +3	at +4	at -1	at -2	at -3	at -4	at -5
A fixed	0.523	3.81	0.935	0.868	0.794	0.298	0.638	1.06	1.07
D fixed	0.142	0.456	0.657	0.741	0.332	0.0993	0.253	0.673	0.561
E fixed	0.161	0.217	0.94	0.704	0.254	0.0919	0.269	0.731	0.544
F fixed	1.37	0.928	1.42	0.877	1.06	0.519	0.574	0.881	0.948
G fixed	0.353	0.908	1.17	1.34	0.645	0.224	0.814	1.22	1.14
H fixed	0.93	0.94	1.08	0.987	1.36	1.1	1.02	1.16	1.18
I fixed	1.82	0.958	0.944	0.834	0.538	0.325	0.439	0.591	0.78
K fixed	0.715	0.343	0.634	0.97	1.72	0.815	3.3	1.53	1.74
L fixed	1.48	0.79	1.19	0.826	1.22	0.27	0.432	0.804	0.794
M fixed	1.83	0.681	1.07	0.876	1.28	0.347	0.557	0.932	0.835
N fixed	0.402	0.924	0.702	1.01	0.942	0.26	0.744	0.959	0.986
P fixed	0.18	0.846	1.08	1.74	0.278	0.576	0.567	0.867	0.899
Q fixed	0.672	0.742	0.842	0.977	0.991	0.455	0.895	1	0.836
R fixed	0.911	0.444	0.861	1.33	2.54	9.1	4.48	1.98	1.79
V fixed	1.55	1.87	0.962	0.798	0.531	0.333	0.376	0.586	0.791
W fixed	2.21	1.02	1.32	1.21	1.14	0.428	0.898	1.08	1.12
Y fixed	1.74	1.12	1.21	0.917	1.38	1.76	0.745	0.935	0.987
pThr fixed	0.367	0.442	0.647	0.925	0.214	0.201	0.373	0.693	0.735
pTyr fixed	0.581	0.527	0.956	0.732	0.268	0.216	0.45	0.731	0.729

STK11, construct: Full length (from UniProt Q15831)
relative phosphorylation
Conditions	at +1	at +2	at +3	at +4	at -1	at -2	at -3	at -4	at -5
A fixed	1.07	1.17	0.932	1.03	1.34	0.926	0.956	0.936	1.22
D fixed	0.613	0.987	0.787	0.832	0.726	0.407	0.289	0.773	0.827
E fixed	0.417	0.598	0.688	0.75	0.874	0.338	0.312	0.738	0.641
F fixed	0.801	0.907	0.891	0.898	0.582	0.932	1.81	1.5	0.939
G fixed	1.26	1.12	1.62	1.31	0.854	0.82	1.99	1.06	1.28
H fixed	1.27	1.22	1.36	1.13	1.22	0.924	1.17	1.13	1.07
I fixed	0.653	0.711	0.579	0.741	0.349	1.81	0.441	0.485	0.492
K fixed	0.647	0.595	0.892	1.11	1.59	0.867	0.95	0.857	1.49
L fixed	0.974	0.701	0.766	0.952	0.777	2.39	1.14	0.627	0.566
M fixed	1.16	0.714	0.699	0.813	1.3	1.12	1.48	0.685	0.775
N fixed	1.53	1.07	1.21	1.08	1.22	1.06	0.721	0.859	1.19
P fixed	0.597	1.86	1.55	1.71	0.472	0.709	1.16	1.27	1.86
Q fixed	1.57	0.922	1.14	1.17	1.62	0.836	0.728	0.799	0.901
R fixed	1.34	0.692	1.02	0.953	1.84	1.19	0.765	0.828	1.27
V fixed	0.654	0.882	0.7	0.724	0.495	1.06	0.385	0.498	0.532
W fixed	1.36	1.66	1.15	1	0.848	0.712	1.29	2.99	1.17
Y fixed	1.07	1.19	1.01	0.796	0.897	0.903	1.41	0.959	0.775
pThr fixed	0.539	0.947	0.782	0.571	0.36	0.852	0.662	0.713	0.84
pTyr fixed	0.43	0.743	0.736	0.581	0.559	0.553	0.746	0.632	0.897

CSNK1A1, construct: Full length (from UniProt P48729)
relative phosphorylation
Conditions	at +1	at +2	at +3	at +4	at -1	at -2	at -3	at -4	at -5
A fixed	0.898	1.02	1	1.11	1.24	2.02	0.811	1.17	1.13
D fixed	0.691	0.553	0.8	1.09	0.696	0.92	3.33	1.38	1.2
E fixed	1.21	0.343	0.994	0.958	1.01	1.44	3.21	1.74	1.17
F fixed	0.725	1.5	1.2	1.18	0.665	0.688	0.558	0.898	1.06
G fixed	0.869	0.952	1.76	1.1	1.08	1.04	0.749	1.11	1
H fixed	1.17	1.65	1.64	1.09	1.17	0.881	0.579	0.933	1.06
I fixed	1.59	1.27	0.695	0.869	0.671	0.81	0.625	0.754	0.829
K fixed	0.509	0.699	0.6	0.782	1.1	0.705	0.633	0.734	0.956
L fixed	1.12	0.726	0.754	0.865	0.76	0.837	0.581	0.677	0.969
M fixed	1.1	0.892	1.01	0.946	1.04	0.897	0.562	0.744	0.901
N fixed	1.15	0.742	0.776	0.737	1.24	1.09	0.831	0.915	0.824
P fixed	0.639	1.09	0.847	0.989	1.14	1.38	0.826	1.09	1.43
Q fixed	1.22	0.626	0.727	0.848	1.61	1.08	0.75	0.706	0.717
R fixed	0.59	0.632	0.552	0.628	1.04	0.824	0.746	0.74	0.768
V fixed	2.02	0.985	0.711	0.923	0.787	0.986	0.595	0.692	0.78
W fixed	0.738	1.59	1.38	1.46	0.898	0.635	0.628	1.67	1.16
Y fixed	0.771	1.73	1.55	1.44	0.839	0.763	0.987	1.04	1.04
pThr fixed	3.36	0.673	1.04	3.07	1.48	5.81	100	10.8	2.93
pTyr fixed	1.32	6.1	4.04	2.48	1.76	3.06	5.64	10.7	3.72
